Results reported in article doi:10.1101/2024.07.29.605519.

Legend:
[1] = molecular target: SCRM KiDoK peptide (Arabidopsis); experiment: ITC; as a3, but MPK6ΔNt (29–305) pre-incubated with the small molecule kC9
[2] = molecular target: SCRM KiDoK peptide (Arabidopsis); experiment: ITC; Malvern PEAQ-ITC, 25 °C, PBS pH 7.4 with 2% DMSO; SCRM KiDoK peptide with MPK6ΔNt (29–305); without kC9
[3] = molecular target: SCRM KiDoK peptide (Arabidopsis); experiment: BLI; as a1, but MPK6 pre-incubated with the small molecule kC9 (MPK6:kC9 1:1.5 in the methods, 1:2 in the legend) as analyte
[4] = molecular target: SCRM KiDoK peptide (Arabidopsis); experiment: BLI; Octet Red96; biotinylated SCRM KiDoK peptide (500 nM) loaded on streptavidin probes, MPK6 as analyte (150 nM and two-fold dilutions); 25 °C; 1x PBS, 2 % DMSO, 0.02 % Tween20, 0.1 % BSA; 1:1 model, Kd from steady-state analysis; without kC9

Sequence of MPK6ΔNt (29–305) (Q39026 29-305, stated change not applied): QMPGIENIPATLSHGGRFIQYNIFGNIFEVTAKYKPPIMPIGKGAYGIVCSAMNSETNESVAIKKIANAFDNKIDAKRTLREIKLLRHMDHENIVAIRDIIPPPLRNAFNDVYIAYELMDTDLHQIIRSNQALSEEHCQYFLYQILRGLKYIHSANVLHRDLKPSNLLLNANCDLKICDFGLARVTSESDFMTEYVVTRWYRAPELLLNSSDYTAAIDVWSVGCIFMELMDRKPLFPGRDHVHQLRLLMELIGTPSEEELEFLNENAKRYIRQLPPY

Q: Which results are given for “MPK6ΔNt (29–305) (from UniProt Q39026 29-305) (domain or fragment)”?
A: Kd [1]: 1400 nM; Kd [2]: 43.4 nM; Kd [3]: 856 nM; Kd [4]: 40.1 nM
